B1: Spn1(148–293) (domain or fragment, S. cerevisiae, UniProt Q06505 148-293, looked up)
chain: DDLEQYLDEKILRLKDEMNIAAQLDIDTLNKRIETGDTSLIAMQKVKLLPKVVSVLSKANLADTILDNNLLQSVRIWLEPLPDGSLPSFEIQKSLFAALNDLPVKTEHLKESGLGRVVIFYTKSKRVEAQLARLAEKLIAEWTRPI

Assay in all cases: ITC
In assay [1] the target is T1, Spt6(239–1117) (S. cerevisiae, UniProt P23615 239-1117).
T1 sequence (looked up): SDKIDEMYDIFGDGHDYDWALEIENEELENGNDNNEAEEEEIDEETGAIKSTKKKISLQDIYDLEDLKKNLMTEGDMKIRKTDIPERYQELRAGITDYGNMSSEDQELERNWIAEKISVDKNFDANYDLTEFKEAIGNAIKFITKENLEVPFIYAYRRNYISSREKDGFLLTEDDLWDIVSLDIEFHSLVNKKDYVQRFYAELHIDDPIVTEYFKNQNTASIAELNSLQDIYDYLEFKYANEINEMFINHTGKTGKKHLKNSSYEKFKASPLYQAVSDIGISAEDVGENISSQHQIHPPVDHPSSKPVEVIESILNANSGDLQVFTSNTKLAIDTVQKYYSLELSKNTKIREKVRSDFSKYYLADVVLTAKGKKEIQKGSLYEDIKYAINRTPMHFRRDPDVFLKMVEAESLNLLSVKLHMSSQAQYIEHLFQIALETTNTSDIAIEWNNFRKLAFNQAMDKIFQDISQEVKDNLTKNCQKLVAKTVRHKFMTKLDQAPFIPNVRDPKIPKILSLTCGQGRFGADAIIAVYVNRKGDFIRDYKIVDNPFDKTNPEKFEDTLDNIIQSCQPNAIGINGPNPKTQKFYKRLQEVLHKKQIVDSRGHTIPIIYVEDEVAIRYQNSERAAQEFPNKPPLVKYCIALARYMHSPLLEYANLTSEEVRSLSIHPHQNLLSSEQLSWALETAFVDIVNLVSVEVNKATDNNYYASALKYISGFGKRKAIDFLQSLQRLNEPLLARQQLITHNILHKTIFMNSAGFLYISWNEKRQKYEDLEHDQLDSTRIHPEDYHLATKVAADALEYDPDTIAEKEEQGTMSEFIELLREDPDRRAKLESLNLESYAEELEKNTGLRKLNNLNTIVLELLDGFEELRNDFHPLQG

Assay [2] addresses T2, Spn1(148–293)-R263D (S. cerevisiae, UniProt Q06505 148-293, R263D).
T2 sequence (looked up): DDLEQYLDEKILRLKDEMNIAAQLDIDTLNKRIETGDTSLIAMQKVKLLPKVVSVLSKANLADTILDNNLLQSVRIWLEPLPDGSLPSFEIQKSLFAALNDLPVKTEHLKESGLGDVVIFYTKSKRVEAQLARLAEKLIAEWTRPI

Assay [3] deals with B1.

A word on the stoichiometry N: it is a count of units in the complex or per binding partner. Regarding B1, the “stoichiometry N” value in assay [1] stood at 1.

B2: Spt6(239–268) (domain or fragment, S. cerevisiae, UniProt P23615 239-268, looked up)
chain: SDKIDEMYDIFGDGHDYDWALEIENEELEN
In general, Kd refers to the constant that tells how readily two partners part at equilibrium. Higher therefore signals weaker binding. Turning to B2, in assay [2], binding was put at a Kd of 30 µM. The “stoichiometry N” value in assay [3] came out at 1.

B3: Spt6(239–268)-F249K (domain or fragment, S. cerevisiae, UniProt P23615 239-268, looked up)
chain: SDKIDEMYDIKGDGHDYDWALEIENEELEN
Turning to B3, the Kd in assay [3] was 11 µM.

Values taken from paper PMC3017428 (Molecular cell, 2010).
